Several values for one entry are separate records, joined by “and”; a condition that tells them apart may be missing. Equal entries are not always repeated.
Target: T1, Full-length human KIF5A heavy chain (WT), C-terminal FLAG tag (human), Q12840
T1 chain: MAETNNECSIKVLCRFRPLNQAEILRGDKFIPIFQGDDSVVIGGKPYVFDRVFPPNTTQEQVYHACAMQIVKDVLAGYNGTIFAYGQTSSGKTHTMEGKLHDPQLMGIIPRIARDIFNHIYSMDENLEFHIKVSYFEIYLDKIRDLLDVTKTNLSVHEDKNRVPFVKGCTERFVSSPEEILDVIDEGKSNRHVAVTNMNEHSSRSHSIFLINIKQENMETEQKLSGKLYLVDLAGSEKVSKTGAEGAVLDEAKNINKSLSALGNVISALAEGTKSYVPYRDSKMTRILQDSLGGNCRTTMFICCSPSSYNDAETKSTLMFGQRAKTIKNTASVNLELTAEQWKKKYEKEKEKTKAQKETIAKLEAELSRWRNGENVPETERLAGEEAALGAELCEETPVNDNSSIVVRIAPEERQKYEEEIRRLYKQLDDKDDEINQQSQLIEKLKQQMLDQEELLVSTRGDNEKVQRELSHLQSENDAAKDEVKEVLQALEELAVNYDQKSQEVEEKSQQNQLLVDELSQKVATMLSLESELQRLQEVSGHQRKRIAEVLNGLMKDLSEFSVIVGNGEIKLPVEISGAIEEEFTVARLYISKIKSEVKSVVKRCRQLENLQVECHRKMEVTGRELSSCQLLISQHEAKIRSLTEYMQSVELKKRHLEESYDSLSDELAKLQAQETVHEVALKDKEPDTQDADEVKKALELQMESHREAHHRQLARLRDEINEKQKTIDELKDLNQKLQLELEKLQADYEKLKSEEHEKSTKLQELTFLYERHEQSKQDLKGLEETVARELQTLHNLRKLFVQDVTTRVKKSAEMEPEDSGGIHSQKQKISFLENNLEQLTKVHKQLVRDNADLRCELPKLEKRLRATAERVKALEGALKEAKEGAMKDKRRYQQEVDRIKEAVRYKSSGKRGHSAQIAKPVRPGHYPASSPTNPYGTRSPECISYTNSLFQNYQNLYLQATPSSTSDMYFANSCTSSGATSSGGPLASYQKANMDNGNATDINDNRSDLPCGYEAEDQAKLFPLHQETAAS
Experiment: mass photometry; single-molecule landing assay, Refeyn OneMP, 25 nM KIF5A, room temperature (~23 °C); results say low salt buffer (150 mM KCl), methods name PBS; monomer to dimer, and dimers to tetramer
Settings: remark: other sources report otherwise

B1: Full-length human KIF5A heavy chain (WT), C-terminal FLAG tag, Q12840 1-1032 (natural protein)
chain: T1 chain
stoichiometry N: 2 and 4
